According to article PMC6944378, “Ecotin, a microbial inhibitor of serine proteases, blocks multiple complement dependent and independent microbicidal activities of human serum” (PLoS Pathogens, 2019):

Tests used:
[1] = biological target: T1, MASP-1 catalytic fragment (CCP1-CCP2-SP) (UniProt P48740 299-699); experiment: equilibrium enzyme inhibition titration (residual activity; Green and Work); fixed protease incubated with increasing inhibitor to equilibrium; free enzyme read with 250 μM Z-L-Lys-SBzl + 500 μM DTNB; 20 mM HEPES, 145 mM NaCl, 5 mM CaCl2, 0.05% Triton X-100, pH 7.5; apparent KI corrected with KM where marked [a]; conditions: both partners purified
T1 construct: MASP-1, active catalytic fragment containing the CCP1-CCP2-SP domains
T1 sequence: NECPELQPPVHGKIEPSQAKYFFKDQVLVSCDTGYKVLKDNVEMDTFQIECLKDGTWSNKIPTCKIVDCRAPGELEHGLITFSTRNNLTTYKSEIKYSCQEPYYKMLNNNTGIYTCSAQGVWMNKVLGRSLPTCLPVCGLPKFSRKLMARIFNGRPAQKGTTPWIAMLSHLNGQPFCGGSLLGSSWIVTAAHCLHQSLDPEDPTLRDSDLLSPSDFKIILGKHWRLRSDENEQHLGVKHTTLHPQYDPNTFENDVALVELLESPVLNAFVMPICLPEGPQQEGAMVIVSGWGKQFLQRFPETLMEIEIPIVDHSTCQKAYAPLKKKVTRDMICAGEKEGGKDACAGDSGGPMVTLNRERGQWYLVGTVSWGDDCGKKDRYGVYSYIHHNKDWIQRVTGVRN

[2] = biological target: T2, MASP-2 catalytic fragment (CCP1-CCP2-SP) (UniProt O00187 298-686); experiment: as above; conditions: both partners purified
T2 construct: MASP-2, active catalytic fragment containing the CCP1-CCP2-SP domains
T2 sequence (O00187 298-686): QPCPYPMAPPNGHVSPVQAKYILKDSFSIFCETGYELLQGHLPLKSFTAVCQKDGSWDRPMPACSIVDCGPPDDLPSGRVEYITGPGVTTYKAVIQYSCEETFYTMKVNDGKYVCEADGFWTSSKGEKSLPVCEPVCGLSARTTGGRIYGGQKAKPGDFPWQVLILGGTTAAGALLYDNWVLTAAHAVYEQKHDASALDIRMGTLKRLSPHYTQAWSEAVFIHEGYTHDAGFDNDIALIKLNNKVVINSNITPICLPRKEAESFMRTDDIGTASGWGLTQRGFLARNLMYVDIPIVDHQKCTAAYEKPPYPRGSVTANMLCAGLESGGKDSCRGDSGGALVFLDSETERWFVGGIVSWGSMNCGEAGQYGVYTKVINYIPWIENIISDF

[3] = biological target: T3, MASP-3 catalytic fragment (CCP1-CCP2-SP) (UniProt P48740-2 299-728); experiment: as above; conditions: both partners purified
T3 sequence: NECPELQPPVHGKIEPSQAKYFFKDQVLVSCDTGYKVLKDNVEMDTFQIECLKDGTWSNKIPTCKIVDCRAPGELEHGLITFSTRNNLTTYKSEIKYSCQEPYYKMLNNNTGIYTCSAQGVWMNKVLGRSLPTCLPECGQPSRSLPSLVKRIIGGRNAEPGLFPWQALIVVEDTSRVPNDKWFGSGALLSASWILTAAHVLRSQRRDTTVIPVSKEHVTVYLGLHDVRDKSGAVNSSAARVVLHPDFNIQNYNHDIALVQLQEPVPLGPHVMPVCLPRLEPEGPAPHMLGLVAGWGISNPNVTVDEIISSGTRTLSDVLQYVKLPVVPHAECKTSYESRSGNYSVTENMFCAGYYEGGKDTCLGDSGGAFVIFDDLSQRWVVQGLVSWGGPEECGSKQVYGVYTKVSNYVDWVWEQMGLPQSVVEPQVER

[4] = biological target: T2, MASP-2 catalytic fragment (CCP1-CCP2-SP); experiment: cell-based or functional assay
[5] = biological target: T3, MASP-3 catalytic fragment (CCP1-CCP2-SP); experiment: equilibrium enzyme inhibition titration (residual activity; Green and Work); tight-binding format: fixed MASP-3 incubated with increasing ecotin to equilibrium; 250 μM Z-L-Lys-SBzl + 40 μM Thiol Fluorescent Probe IV; 20 mM HEPES, 145 mM NaCl, 5 mM CaCl2, 0.05% Triton X-100, pH 7.5; conditions: both partners purified
[6] = biological target: T4, factor D (human, UniProt P00746 26-253); experiment: equilibrium enzyme inhibition titration (residual activity; Green and Work); fixed protease incubated with increasing inhibitor to equilibrium; free enzyme read with 250 μM Z-L-Lys-SBzl + 500 μM DTNB; 20 mM HEPES, 145 mM NaCl, 5 mM CaCl2, 0.05% Triton X-100, pH 7.5; apparent KI corrected with KM where marked [a]; conditions: both partners purified
T4 construct: the KI was measured on recombinant FD; that the recombinant FD was made from it is surmised; also called FD; recombinant FD
T4 sequence (P00746 26-253): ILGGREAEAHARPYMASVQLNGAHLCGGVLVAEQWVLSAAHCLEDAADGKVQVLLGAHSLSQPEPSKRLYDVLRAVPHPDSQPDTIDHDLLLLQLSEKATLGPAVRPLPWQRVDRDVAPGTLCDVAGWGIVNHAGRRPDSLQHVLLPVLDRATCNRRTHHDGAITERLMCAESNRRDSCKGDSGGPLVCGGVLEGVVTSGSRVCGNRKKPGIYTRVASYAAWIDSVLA

[7] = biological target: T5, C1s catalytic fragment (CCP1-CCP2-SP) (UniProt P09871 292-688); experiment: equilibrium enzyme inhibition titration (residual activity; Green and Work); fixed protease incubated with increasing ecotin to equilibrium; 250 μM Z-Gly-Arg-SBzl + 500 μM DTNB; 20 mM HEPES, 145 mM NaCl, 5 mM CaCl2, 0.05% Triton X-100, pH 7.5; apparent KI corrected with a KM from the literature; conditions: both partners purified
T5 construct: C1s, active catalytic fragment containing the CCP1-CCP2-SP domains
T5 sequence: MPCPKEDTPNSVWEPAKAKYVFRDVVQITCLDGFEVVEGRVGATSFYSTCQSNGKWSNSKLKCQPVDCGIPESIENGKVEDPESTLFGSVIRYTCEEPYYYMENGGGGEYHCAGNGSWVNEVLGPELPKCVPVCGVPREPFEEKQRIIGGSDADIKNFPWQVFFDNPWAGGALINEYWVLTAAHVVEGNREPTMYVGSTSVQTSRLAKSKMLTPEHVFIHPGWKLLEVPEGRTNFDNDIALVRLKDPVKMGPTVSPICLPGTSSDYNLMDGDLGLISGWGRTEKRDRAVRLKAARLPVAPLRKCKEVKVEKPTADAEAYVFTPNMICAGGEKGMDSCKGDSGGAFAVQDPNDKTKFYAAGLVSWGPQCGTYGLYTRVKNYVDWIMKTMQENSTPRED

[8] = biological target: T3, MASP-3 catalytic fragment (CCP1-CCP2-SP); experiment: cell-based or functional assay
[9] = biological target: T1, MASP-1 catalytic fragment (CCP1-CCP2-SP); experiment: […]; 20 mM HEPES, 145 mM NaCl, 5 mM CaCl2, 0.05% Triton X-100, pH 7.5; […]; conditions: both partners purified
[10] = biological target: T2, MASP-2 catalytic fragment (CCP1-CCP2-SP); experiment: as above; conditions: both partners purified
[11] = biological target: T3, MASP-3 catalytic fragment (CCP1-CCP2-SP); experiment: as above; conditions: both partners purified

B1: P. aeruginosa ecotin (natural protein)
chain: not shown
notes: also called Pseudomonas aeruginosa ecotin ortholog
Ki [1]: 34 nM
Ki [2]: 76 nM
Ki [3]: 9.6 nM
IC50 of mannan-triggered LP-driven C3-deposition ELISA in 2% NHS (the most efficient LP inhibitor of the four orthologs) [4]: 84 to 190 nM

B2: E. coli ecotin (natural protein)
chain: not shown
notes: also called recombinant E. coli ecotin
Ki [5]: 0.52 nM
Ki [6]: 4060 nM
Ki [1]: 4200 nM
Ki [2]: 11 nM
Ki [7]: 25200 ± 4450 nM
half-life of Cy3-labelled pro-FD in NHS at 37 °C with 1 μM ecotin pre-incubated 10 min with the serum (3 hours without inhibitor) [8]: 10 h

B3: L. major ecotin (ISP2) (natural protein)
chain: MPAGMSDAAGKTLADFKAPYPEPTSQQRRYVIFLDPKGDSKELNDYKVELIPGRVEKVDGTNVYRMGGNIEERTIDGWGYPYYIVTLTTMSGTLMMPLGDAALKRPRFVAMNTKNLYRYNSRLPIVVYMPKDGELRYRIWTVKSTGSGTAKSTKAREM
notes: His6-tag cleaved off with TEV protease; also called Leishmania major ISP2 ortholog; not shown: His6, N-terminal, cleaved
Ki [1]: 2700 nM
Ki [2]: 8.8 nM
Ki [3]: 4.1 nM

B4: Y. pestis ecotin (natural protein)
chain: DTPTPLNQQQPLEKIAPYPQAEKGMSRQVIFLEPQKDESRFKVELLIGKTLNVDCNRHMLGGNLETRTLSGWGFDYLVMDKISQPASTMMACPEDSKPQVKFVTANLGDAAMQRYNSRLPIVVYVPQGVEVKYRIWEAGEDIRSAQVK
notes: also called Yersinia pestis ecotin ortholog
Ki [9]: 35000 nM
Ki [10]: 2.2 nM
Ki [11]: 800 nM
